Assay results published in patent US20120149645A1, “COMPOSITIONS AND MODULATION OF MYOCYTE ENHANCER FACTOR 2 (MEF2)” (EMORY UNIVERSITY, priority 2010, published 2012).

Tests used:
MEF2D binding to ND6 = assay: ChIP assay of MEF2D binding to the ND6 MEF2 site in purified mitochondria; type: cell-based, mouse; conditions: construct over-expressed in SN4741 cells
Text: (§1) (A) Mitochondria-targeting MEF2D (Mt2D) and mitochondria-targeting dominant-negative MEF2D (Mt2Ddn), which lacks the transactivation domain (TAD). […] Control indicates the control vector group. (C) Effects of Mt2D or Mt2Ddn on ND6 expression in SN4741 cells. Over-expression of Mt2Ddn in SN4741 cells reduced ND6 but not PPAR-γ coactivator 1 (PGC1) expression by western blotting (n=4, **p<0.01). Control indicates the control vector group. (D) Effects of over-expression of Mt2D or Mt2Ddn on mRNA levels of mitochondria encoded genes. […] Control indicates the control vector group. (E) Effects of Mt2D or Mt2Ddn on mtDNA L-strand transcription initiation in vitro (n=3; **P<0.01). A human mtDNA fragment containing mitochondrial L-strand promoter (LSP) and ND6 gene was used in the in vitro transcription assay. […] (F) Effects of Mt2D or Mt2Ddn on mtDNA de novo transcription in vivo (n=3; **P<0.01). Control (−) is without primers. Control (+) indicates the control vector group.
(§2) (A) Reduced binding of MEF2D to ND6 after neurotoxin treatment. SN4741 cells were treated with MPP+ (25 μM) or rotenone (Rot, 100 nM) for 12 hours. […] Control indicates untreated. […] Control indicates untreated. (C) Immunocytochemical analysis of mitochondrial MEF2D after MPP+ and rotenone treatment. SN4741 cells treated as described in (A) were stained (scale bar, 10 μm). […] Experiments were repeated four times. Control indicates untreated. […] SN4741 cells were treated with MPP+ after infection with the control, Mt2Ddn or Mt2DVP16 or MtND6 lentiviruses for 24 hours (upper graph: different doses of MPP+ for 24 hours; lower graph: 5 μM of MPP+ for different times). Cell viability was measured by WST-1 assay (n=4; *p<0.05; **P<0.01). Control indicates the control vector group.
Andres et al., J Biol Chem, 1995, 270:23246-23249. Moreover, this putative MEF2 binding site is conserved among several species. To test whether MEF2D binds to this putative MEF2 site, electronic mobility shift assay (EMSA) was performed. N-terminal MEF2D formed a complex with the labeled probe containing the ND6 MEF2 site. […] To corroborate this finding, a chromatin immunoprecipitation (ChIP) assay was carried out using highly purified mitochondria. […] ND6 but not ND2 based primers could amplify the bound sequence (FIG. 3C). Sequence analysis of the DNA bound by MEF2D after amplification confirmed the presence of the ND6 MEF2 site (FIG. 3D).

[1] = system: human mtDNA fragment containing mitochondrial L-strand promoter (LSP) and ND6 gene; assay: In vitro mtDNA L-strand transcription assay; type: biochemical
Text: as §1

ND6 = assay: In organello de novo transcription assay; type: cell-based, mouse; conditions: mitochondria isolated from SN4741 cells infected with lentivirus for 24 hour
Text: as §1
SN4741 cells were infected with Mt2D or Mt2Ddn lentiviruses for 24 hour. De novo transcription was measured in isolated mitochondria as described previously (46, 47). The mitochondrial fraction was suspended in transcription buffer containing 25 mM sucrose, 75 mM sorbitol, 100 mM KCl, 10 mM K2HPO4, 50 mM EDTA, 5 mM MgCl2, 1 mM ADP, 10 mM glutamate, 2.5 mM malate, and 10 mM Tris-HCl (pH7.4), with 1 mg of BSA per ml. […]

MEF2D and ND6 proteins = assay: Western blotting of MEF2D, ND6 and PGC1 protein levels in SN4741 cells; type: cell-based, mouse; conditions: construct over-expressed in SN4741 cells
Text: as §1, §2
(A) Diagrams of Mt2DVP16 and MtND6. Mt2DVP16 was constructed by fusion of transactivation domain (TAD) of VP16 with DNA-binding domain of MEF2D and a mitochondria-targeting sequence (Mito). […] (C) Over-expression of Mt2DVP16 attenuated MEF2D siRNA-induced reduction of ND6 expression (n=3, **P<0.01).

binding of full length MEF2D to the ND6 MEF2 site (MEF2D binding to ND6): modulated
B1: Mt2Ddn: Mitochondria-targeting dominant-negative MEF2D: mouse MEF2D 1-131aa with mitochondria-targeting signal, lacks the transactivation domain (protein, UniProt Q63943 1-131, looked up, fragment)
chain: MGRKKIQIQRITDERNRQVTFTKRKFGLMKKAYELSVLCDCEIALIIFNHSNKLFQYASTDMDKVLLKYTEYNEPHESRTNADIIETLRKKGFNGCDSPEPDGEDSLEQSPLLEDKYRRASEELDGLFRRY
modifications: mitochondria-targeting signal added
level of L-strand promoter (LSP) transcripts [1]: reduces
de novo transcription of ND6 (ND6): reduced
ND6 protein level / expression (MEF2D and ND6 proteins): marked reduction
level of PGC1 (nuclear target of MEF2) (MEF2D and ND6 proteins): did not alter
